Source: patent publication US8889408B2, “Factor taking part in transcription control” (Sony Corporation, priority 2002, dated 2014)

Tests used:
MM-1-19-P cells = test: ATRA-induced differentiation of MM-1-19-P rhabdomyosarcoma cells; type: cell-based, human
Text: It is known that ATRA (all-trans retinoic acid) is an important inducer for tumor cell differentiation (20-22). The human rhabdomyosarcoma cell line MM-1-19-P is constituted mainly of small polygonal cells, which when provided with retinoic acid, ultimately differentiate into myotubular cytomegalic cells. In order to clarify the physiological role of HDART in the reaction ascribed to nuclear hormone receptors, the influence of the expression with HDART on the differentiation of MM-1-19-P caused by ATRA was analyzed.
MM-1-19-P cells were plated in a […] Petri dish, followed by co-transfection of the cells with 0.4 μg of pGFP vector and 2 μg of pcDNA3 (vacant vector) or pcDMA3-HDART (HDART expression vector). 24 hours after the transfection, the medium was changed with an ATRA-containing (2 μM) or ATRA-free fresh one. […] All experiments were repeated four times, and the number of cells assessed as positive for GFP was counted. It will be noted that in FIG. 12, the standard microphotographs of green fluorescence of GFP are shown in panels of FIGS. 12A, 12B, 12C and 12D, and the phase differential microphotographs are shown in panels of FIGS. 12E and 12F, respectively. In the figure, 12A indicates ATRA non-treated, vacant vector-introduced cells, 12B indicates ATRA treated, vacant vector-introduced cells, 12C indicates ATRA-non-treated, HDART expression vector-introduced cells, 12D indicates ATRA-treated, HDART expression vector-introduced cells, 12E indicates cells under the same conditions as in 12C above, and 12F indicates cells under the same conditions as in 12D above. In addition, the black arrow in the panel of FIG. 12F indicates undifferentiated GFP positive cells, and white arrow indicates differentiated cells.

HDAC4 = target: T1, HDAC4 (Homo sapiens, UniProt P56524); test: Immunoprecipitation of GFP-HDART with Flag-HDAC in 293 cells; type: binding; settings: co-transfected 293 cells; anti-FLAG immunoprecipitation
T1 construct: expressed in transfected cells; host or cells: 293 cells
Protocol: (§1) Flag-HDACs expression vectors capable of expressing different types of HDAC (1, 3, 4 or 6) and a GFP-HDART expression vector were, respectively, co-transfected with 293 cells in the same manner as in Example 2, and cell extracts were prepared 24 hours after the transfection. The respective cell extracts were incubated with an anti-Flag antibody, followed by immunoprecipitation. The resulting immunoprecipitate was isolated with SDS-PAGE and an isolated pattern was transferred to a membrane, followed by immunoblotting with use of an anti-Flag antibody or […]. For reference, in order to confirm the expression of GFP-HDART protein in the respective cells, individual samples prior to the immunoprecipitation were similarly developed with SDS-PAGE to conduct immunoblotting with use of an anti-GFP antibody. […] The kinds of HDAC's from the left side of the figure are as follows: lane 1, HDAC1; lane 3, HDAC3; lane 4, HDAC4; and lane 5, HDAC6. It will be noted that lane 2 is for the sample in which GFP-HDART alone was expressed.

HDAC6 = target: T2, HDAC6 (Homo sapiens, UniProt Q9UBN7); test: as above; type: binding; settings: co-transfected 293 cells; anti-FLAG immunoprecipitation
T2 construct: expressed in transfected cells; host or cells: 293 cells
T2 sequence (Q9UBN7 1-1215): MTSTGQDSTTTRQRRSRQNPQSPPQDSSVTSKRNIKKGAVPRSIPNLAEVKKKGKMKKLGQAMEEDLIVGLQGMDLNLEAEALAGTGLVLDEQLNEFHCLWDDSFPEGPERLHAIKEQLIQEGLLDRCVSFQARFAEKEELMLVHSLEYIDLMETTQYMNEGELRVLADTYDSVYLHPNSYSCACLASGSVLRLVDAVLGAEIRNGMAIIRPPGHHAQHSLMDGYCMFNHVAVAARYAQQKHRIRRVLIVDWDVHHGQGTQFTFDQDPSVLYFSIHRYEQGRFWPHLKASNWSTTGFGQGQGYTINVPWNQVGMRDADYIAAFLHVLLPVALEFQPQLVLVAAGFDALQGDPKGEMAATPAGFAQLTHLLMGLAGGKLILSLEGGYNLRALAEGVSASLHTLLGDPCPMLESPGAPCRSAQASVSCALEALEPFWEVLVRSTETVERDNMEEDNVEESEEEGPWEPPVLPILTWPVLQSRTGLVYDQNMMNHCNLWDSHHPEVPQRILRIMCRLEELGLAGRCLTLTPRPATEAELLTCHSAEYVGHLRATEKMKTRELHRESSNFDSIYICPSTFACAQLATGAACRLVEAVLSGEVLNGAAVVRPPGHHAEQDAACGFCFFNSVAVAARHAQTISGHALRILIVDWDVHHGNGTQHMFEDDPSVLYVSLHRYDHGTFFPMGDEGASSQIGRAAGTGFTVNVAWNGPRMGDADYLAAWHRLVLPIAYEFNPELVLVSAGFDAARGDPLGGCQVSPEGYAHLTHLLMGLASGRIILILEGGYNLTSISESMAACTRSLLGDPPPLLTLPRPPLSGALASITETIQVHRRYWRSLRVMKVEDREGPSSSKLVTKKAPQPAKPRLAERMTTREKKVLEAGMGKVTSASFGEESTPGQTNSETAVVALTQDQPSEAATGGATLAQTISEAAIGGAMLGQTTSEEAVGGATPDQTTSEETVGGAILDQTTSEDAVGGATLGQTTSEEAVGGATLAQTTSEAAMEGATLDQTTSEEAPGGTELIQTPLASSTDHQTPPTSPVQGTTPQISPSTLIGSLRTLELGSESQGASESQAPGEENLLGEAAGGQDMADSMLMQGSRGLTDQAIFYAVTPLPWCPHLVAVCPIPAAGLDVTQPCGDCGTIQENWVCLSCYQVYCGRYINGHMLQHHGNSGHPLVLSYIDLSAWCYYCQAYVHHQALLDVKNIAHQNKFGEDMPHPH
Protocol: as §1

HDAC1 = target: T3, HDAC1 (Homo sapiens, UniProt Q13547); test: as above; type: binding; settings: co-transfected 293 cells; anti-FLAG immunoprecipitation
T3 construct: made in house
Protocol: as §1

[1] = test system: glucocorticoid receptor (GR); test: GR reporter CAT analysis in GR positive Hela cells; type: cell-based; settings: co-expression of HDART; Hela cells; 10^−8 M dexamethasone
Protocol: Furthermore, the action of HDART on the transcription regulation by glucocorticoid receptor (GR) was analyzed by use of GR reporter plasmid in GR positive Hela cells. The transcription activity of a glucocorticoid response promoter was carried out in the same manner as in the experiment for the retinoic acid receptor except for the use of Hela cells and 10^−8 M of dexamethasone. The results of the measurement are shown in the same manner as shown above.
Next, the influence of the overexpression of N4TPR on the transcription from RAR or a glucocorticoid responsive promoter was checked. It will be noted that this test was made in the same manner as in the reporter analysis set out in Example 4, but using GFP-N4TPR expression vector (0, 0.3 and 0.5 μg).

T3 sequence (Q13547 whole entry, species assumed): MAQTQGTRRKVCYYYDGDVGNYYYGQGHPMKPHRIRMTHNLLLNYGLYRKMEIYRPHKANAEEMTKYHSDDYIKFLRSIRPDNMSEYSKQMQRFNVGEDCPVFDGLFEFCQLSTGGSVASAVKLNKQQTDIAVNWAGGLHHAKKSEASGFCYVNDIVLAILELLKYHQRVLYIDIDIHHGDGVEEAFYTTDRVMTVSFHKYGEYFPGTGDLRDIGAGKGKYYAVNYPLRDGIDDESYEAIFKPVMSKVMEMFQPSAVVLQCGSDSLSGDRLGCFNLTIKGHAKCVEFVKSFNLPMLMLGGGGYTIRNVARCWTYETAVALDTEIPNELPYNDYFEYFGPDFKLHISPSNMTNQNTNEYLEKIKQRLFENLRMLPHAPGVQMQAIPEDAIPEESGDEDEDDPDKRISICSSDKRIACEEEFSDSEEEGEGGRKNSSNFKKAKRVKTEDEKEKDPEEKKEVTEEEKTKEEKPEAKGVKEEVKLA
T1 sequence (P56524 whole entry, species assumed): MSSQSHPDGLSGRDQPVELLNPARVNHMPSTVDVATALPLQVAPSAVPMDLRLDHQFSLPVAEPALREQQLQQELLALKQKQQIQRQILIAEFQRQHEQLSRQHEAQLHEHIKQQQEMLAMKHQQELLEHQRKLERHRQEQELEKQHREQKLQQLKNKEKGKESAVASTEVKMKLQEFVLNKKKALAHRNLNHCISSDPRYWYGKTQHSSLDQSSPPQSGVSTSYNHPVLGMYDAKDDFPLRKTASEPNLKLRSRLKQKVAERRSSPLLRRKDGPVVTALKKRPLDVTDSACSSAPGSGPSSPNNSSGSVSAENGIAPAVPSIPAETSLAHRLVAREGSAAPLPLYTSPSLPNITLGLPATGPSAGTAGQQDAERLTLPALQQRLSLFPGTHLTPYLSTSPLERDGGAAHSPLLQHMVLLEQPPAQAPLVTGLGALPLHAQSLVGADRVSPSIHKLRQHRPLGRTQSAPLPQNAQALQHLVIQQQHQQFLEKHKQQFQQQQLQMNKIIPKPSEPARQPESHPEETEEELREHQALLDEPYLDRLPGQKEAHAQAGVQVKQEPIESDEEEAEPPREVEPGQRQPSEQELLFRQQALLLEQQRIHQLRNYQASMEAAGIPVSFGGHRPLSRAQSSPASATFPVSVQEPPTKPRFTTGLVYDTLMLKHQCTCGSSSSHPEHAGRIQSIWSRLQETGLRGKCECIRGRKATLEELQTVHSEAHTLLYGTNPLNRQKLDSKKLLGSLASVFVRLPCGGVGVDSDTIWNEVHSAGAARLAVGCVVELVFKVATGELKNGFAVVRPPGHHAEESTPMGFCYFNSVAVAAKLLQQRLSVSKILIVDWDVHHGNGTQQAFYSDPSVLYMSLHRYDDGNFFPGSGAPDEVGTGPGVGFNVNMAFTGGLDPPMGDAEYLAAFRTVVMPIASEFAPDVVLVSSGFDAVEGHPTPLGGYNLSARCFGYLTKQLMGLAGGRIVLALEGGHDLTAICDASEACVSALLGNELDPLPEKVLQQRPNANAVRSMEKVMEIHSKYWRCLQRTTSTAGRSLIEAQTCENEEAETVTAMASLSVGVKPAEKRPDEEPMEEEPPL

B1: HDART: HDAC associated repressor TPR protein, 855 amino acids, SEQ ID NO: 2; transcription repressing factor, used as fusions or expressed from vector (protein, listed as Homo sapiens)
chain: MVVMARLSRPERPDLVFEEEDLPYEEEIMRNQFSVKCWLRYIEFKQGAPKPRLNQLYERALKLLPCSYKLWYRYLKARRAQVKHRCVTDPAYEDVNNCHERAFVFMHKMPRLWLDYCQFLMDQGRVTHTRRTFDRALRALPITQHSRIWPLYLRFLRSHPLPETAVRGYRRFLKLSPESAEEYIEYLKSSDRLDEAAQRLATVVNDERFVSKAGKSNYQLWHELCDLISQNPDKVQSLNVDAIIRGGLTRFTDQLGKLWCSLADYYIRSGHFEKARDVYEEAIRTVMTVRDFTQVFDSYAQFEESMIAAKMETASELGREEEDDVDLELRLARFEQLISRRPLLLNSVLLRQNPHHVHEWHKRVALHQGRPREIINTYTEAVQTVDPFKATGKPHTLWVAFAKFYEDNGQLDDARVILEKATKVNFKQVDDLASVWCQCGELELRHENYDEALRLLRKATALPARRAEYFDGSEPVQNRVYKSLKVWSMLADLEESLGTFQSTKAVYDRILDLRIATPQIVINYAMFLEEHKYFEESFKAYERGISLFKWPNVSDIWSTYLTKFIARYGGRKLERARDLFEQALDGCPPKYAKTLYLLYAQLEEEWGLARHAMAVYERATRAVEPAQQYDMFNIYIKRAAEIYGVTHTRGIYQKAIEVLSDEHAREMCLRFADMECKLGEIDRARAIYSFCSQICDPRTTGAFWQTWKDFEVRHGNEDTIKEMLRIRRSVQATYNTQVNFMASQMLKVSGSATGTVSDLAPGQSGMDDMKLLEQRAEQLAAEAERDQPLRAQSKILFVRSDASREELAELAQQVNPEEIQLGEDEDEDEMDLEPNEVRLEQQSVPAAVFGSLKED
change in phenotype on ATRA treatment (MM-1-19-P cells; HDART expression vector-introduced GFP positive cells, ATRA 2 μM, 48 hours): little change in the phenotype
numbers of GFP positive cells, ATRA treated versus non-treated group (MM-1-19-P cells; HDART expression vector-introduced cells): same
interaction with HDAC4 (HDAC4): exhibits interaction
interaction with HDAC6 (HDAC6): exhibits interaction
interaction with HDAC1 (HDAC1): exhibits interaction
activation of the reporter gene responding to glucocorticoid [1]: inhibited
